Columns and labels:
[1] = system: natural protease acting in E. coli cells; assay: Integrity after expression in E. coli (non reducing SDS-PAGE, mass spectrometry, Edman sequencing); settings: MS and Edman sequencing
Protocol: Expression was performed by inoculation of a 50 milliliter culture of 2×TY media supplemented with OVERNIGHT EXPRESS™ autoinduction solutions (1 milliliter of Solution 1 (Cat. No. 71298), 2.5 milliliters of Solution 2 (Cat. No. 71299), 50 microliters of Solution 3 (Cat. No 71304), Novagen) and 100 microgram per milliliter of carbenicillin. Culture was carried overnight at 37° C., and then the culture supernatant was clarified by centrifugation at 3700×g for 45 minutes. The expressed protein was then purified from the clarified supernatant using PROTEIN L STREAMLINE™ (GE Healthcare, Cat. No. 28-4058-03, protein L coupled), and eluted from the Protein L using 0.1M glycine pH 2.0, then neutralized using 0.2 volumes of 1M Tris pH 8.0.
After the plasmid DNA pDOM35 comprising sequence of DMS7161 was transformed into BL21(DE3), glycerol stock was prepared from grown colonies, by scraping colonies into minimal media with glucose and addition of glycerol, final conentration of approximately 15%. Expression of DMS7161 was started by inoculation of the glycerol into 50 milliliters of minimal media (DMS7161 A) supplemented in Yeast Extract for final concentration 10 g/liter (DMS7161 B) so as to obtain the starting culture density of OD600=0.024. The culture was grown to OD600 of approximately 1.4 at 30° C., then induced by the addition of 0.1 mM isopropyl-beta-d-thiogalactoside. […]

human GLP-1 receptor = target: T1, human GLP-1 receptor (Homo sapiens, UniProt P43220); assay: GLP-1 receptor assay, CHO 6CRE GLP1R cells, luciferase reporter (384-well, STEADY GLO); type: cell-based
T1 construct: expressed in transfected cells; host or cells: CHO K1 (CHO 6CRE GLP1R)
T1 sequence (P43220 24-463): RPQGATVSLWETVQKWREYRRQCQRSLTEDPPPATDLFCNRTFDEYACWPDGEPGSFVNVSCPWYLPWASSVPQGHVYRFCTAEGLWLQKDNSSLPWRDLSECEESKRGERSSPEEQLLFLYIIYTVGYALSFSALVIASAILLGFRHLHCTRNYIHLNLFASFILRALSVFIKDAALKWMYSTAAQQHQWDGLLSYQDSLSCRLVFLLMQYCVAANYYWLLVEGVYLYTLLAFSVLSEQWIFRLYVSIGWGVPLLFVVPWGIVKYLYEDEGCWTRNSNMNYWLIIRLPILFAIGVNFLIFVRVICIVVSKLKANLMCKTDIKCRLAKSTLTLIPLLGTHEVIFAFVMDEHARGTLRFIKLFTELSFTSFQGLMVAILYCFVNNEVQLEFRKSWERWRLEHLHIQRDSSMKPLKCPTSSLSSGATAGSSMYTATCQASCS
Protocol: Background: GLP-1R is a 7TM G-protein coupled receptor which is expressed on CHO cells. […] CHO cells are stably transfected with the 6CRE/luc reporter gene. […] This then catalyses a reaction with luciferin to produce light which can be measured on a luminometer.
Suspension culture was maintained for forty-eight hours. Cells were then diluted into 15 mM HEPES, 2 mM L glutamine (2.5×10^5 cells/ml) and dispensed into 384-well plates containing 10 ul/well of the compound to be assayed. After the addition of assay controls, plates were returned to the incubator for 3h at 37° C. and 5% CO2. […] Plates were placed in the reader (Packard TopCount) and pre-incubated for 5 minutes prior to reading […] and plotting of results. Compound was assayed at a range of concentrations response curve to be fitted from which pC50s were calculated.

[2] = target: T2, GLP-1 receptor (CHO 6CRE GLP1R cells) (Homo sapiens, UniProt P43220); assay: GLP-1 assay, CHO 6CRE GLP1R cells, luciferase reporter (96-well, BRIGHT-GLO); type: cell-based
T2 construct: expressed in transfected cells; host or cells: CHO 6CRE GLP1R cells (CHO K1)
T2 sequence (P43220 24-463): as above

Molecule	integrity / degradation on expression in E. coli [1]	% max response (human GLP-1 receptor; CHO 6CRE GLP1R cells, 3h at 37° C.)	activity in GLP-1 receptor assay compared with GLP-1 peptide (human GLP-1 receptor; FIG. 6)	activity compared with DMS7148 [2]
DMS7148: *GLP-1 variant (W25-D mutation) fused to ALBUDAB DOM7h-14 by PSS linker; SEQ ID NO: 16 (protein, Source Amino acid sequence of DMS7148 domain antibody made using molecular biology techniques.) HGEGTFTSDVSSYLEGQAAKEFIADLVEGRGPSSDIQMTQSPSSLSASVGDRVTITCRASQWIGSQLSWYQQKPGKAPKLLIMWRSSLQSGVPSRFSGSGSGTDFTLTISSLQPEDFATYYCAQGAALPRTFGQGTKVEIKR	well expressed in E. coli with the majority of material migrating at the expected size	107%	active, however less active than GLP-1 peptide	–
DMS7161: *GLP-1 variant of DMS7148 fused to DOM7h-14-10 by PSS linker; A = minimal media, B = with Yeast Extract (protein, Source Amino acid sequence of DMS7161 domain antibody made using molecular biology techniques., *GLP-1 variant of DMS7148 fused to DOM7h-14-10 by PSS linker; A = minimal media, B = with Yeast Extract) HGEGTFTSDVSSYLEGQAAKEFIADLVEGRGPSSDIQMTQSPSSLSASVGDRVTITCRASQWIGSQLSWYQQKPGKAPKLLIMWRSSLQSGVPSRFSGSGSGTDFTLTISSLQPEDFATYYCAQGLRHPKTFGQGTKVEIKR	well expressed in E. coli with the majority of material migrating at the expected size	–	–	as active as DMS7148
